According to PMC7247563, “Glycosylation Tunes Neuroserpin Physiological and Pathological Properties” (International Journal of Molecular Sciences, 2020):

Molecular target: the molecule itself
Assay: SEC; 63.8 uM NS or gNS in 10 mM Tris-HCl pH 8.0, 50 mM KCl, incubated at 45 °C; aliquots at different times run on a Superdex 200 Increase 10/300 GL column; heat-induced polymerisation

B1: bacterially expressed human neuroserpin (non-glycosylated) (natural protein, UniProt Q99574 17-410, looked up)
chain: TGATFPEEAIADLSVNMYNRLRATGEDENILFSPLSIALAMGMMELGAQGSTQKEIRHSMGYDSLKNGEEFSFLKEFSNMVTAKESQYVMKIANSLFVQNGFHVNEEFLQMMKKYFNAAVNHVDFSQNVAVANYINKWVENNTNNLVKDLVSPRDFDAATYLALINAVYFKGNWKSQFRPENTRTFSFTKDDESEVQIPMMYQQGEFYYGEFSDGSNEAGGIYQVLEIPYEGDEISMMLVLSRQEVPLATLEPLVKAQLVEEWANSVKKQKVEVYLPRFTVEQEIDLKDVLKALGITEIFIKDANLTGLSDNKEIFLSKAIHKSFLEVNEEGSEAAAVSGMIAISRMAVLYPQVIVDHPFFFLIRNRRTGTILFMGRVMHPETMNTSGHDFEEL
notes: human neuroserpin (NS), wild type, from the pQE81L plasmid carrying the human NS gene; theoretical mass of the construct 46,271 Da; Samples were a mix of native NS and NS cleaved at Arg362; also called NS; bacterially purified NS; source: E. coli BL21 Rosetta (DE3) pLysS, purified (HiTrap Chelating HP, Superdex200 gel filtration)
- binding result: binds
